Experimental data taken from patent US10105442B2, “Treatment of diabetes type 1 using GLP-1 and anti-IL-21” (Novo Nordisk A/S, priority 2014, dated 2018).

Legend:
[1] = test system: recent-onset NOD mouse model; assay: Determination of blood glucose effect in recent-onset NOD model (Assay V; Examples 1-3); type: in vivo
Procedure: Assay (V): Determination of Blood Glucose Effect in NOD Model
The purpose of this experiment was to determine the effect of administration of a GLP-1 agonist, such as the GLP-1 peptide, and/or an inhibitor of IL-21 function on blood glucose.
(§1) The recent-onset NOD mouse model was used. Mice were screened twice weekly and diabetes onset was defined as 2 consecutive blood glucose values of >250 mg/dL. Mice were enrolled into the experiment starting at 11 weeks of age and continued to be enrolled through 26 weeks of age. Dosing was weight based.
(§2) Blood glucose was measured by using a blood glucose meter (Bayer Contour USB) with the corresponding blood glucose strips. Mice with a blood glucose level>250 mg/dL on two consecutive days were considered diabetic. […] If the measurement was again >250 mg/dL, the animal was recorded as diabetic, enrolled into a treatment group, and was monitored further until it reached two consecutive readings of >600 mg/dL. At this time the mouse was sacrificed. Mice were also sacrificed before they reached a blood glucose value of >600 mg/dL if their overall condition was deteriorating, as determined by weight and/or overall appearance.
The mouse surrogate anti-IL-21 antibody was prepared by immunization of 6 to 8 week old BALB/c mice by s.c. injection with recombinant mouse IL-21 in a mixture of adjuvants. […] (SEQ ID No 13).
(§3) Anti-IL-21 was administered i.p. five times twice weekly starting immediately after inclusion of mice, i.e. from Day 0. […] Mouse surrogate anti-IL-21 is an mIgG1/kappa isotype with the VL amino acid sequence: […] […] […] (SEQ ID NO:26), and the VH amino acid sequence: […] […] […] (SEQ ID NO:27). […] Before use, anti-IL-21 was diluted in buffer (20 mM phosphate, 150 mM NaCl, pH=7.4). Aliquots of anti-IL-21 for injection into the animals were only thawed once.
Enrolment of mice of as described in Example 1 was continued adding 9, 8, 8 and 8 subjects to the treatment groups 1 to 4, respectively.

[2] = test system: recent-onset NOD mouse model; assay: Liraglutide in combination with Anti-IL-21 in the NOD model, confirmation study (Example 4); type: in vivo
Procedure: as §1, §2, §3

[3] = test system: pancreatic tissue (islets, insulitis) of NOD mice; assay: Histological examination of pancreatic tissue of NOD mice (H&E, CD8/CD4 and insulin staining); type: in vivo, mouse
Procedure: Histological examination: The histological analyses were performed on pancreatic tissue from a subset of mice from each group. Sections were stained with Hematoxylin and eosin (H&E) to assess insulitis and immunofluorescent staining with either CD8 and insulin or CD4 and insulin to assess insulitis and also characterize cell types within infiltrates.

[4] = biological target: murine IL-21 (Mus musculus, UniProt Q9ES17); assay: Inhibition of IL-21 mediated STAT-3 phosphorylation in BaF3/KZ134/hIL-21R cells (Assay III); type: cell-based; settings: selected antibody clone
Procedure: Assay (III): Inhibition of IL-21 Mediated STAT-3 Phosphorylation.
The ability of anti-IL-21 antibodies to neutralize IL-21 can be measured in a cell based assay using phosphorylation of STAT3 as read-out. BaF3 cells transfected with IL-21 receptor (IL-21R) are used and as IL-21 induces STAT3 phosphorylation reduction hereof by an anti-IL-21 antibody reflects the IL-21 neutralization activity.
Reduction in murine IL-21 activity in the presence of antibody containing supernatant was determined by measuring the level of STAT3-phosphorylation following ligand-receptor interaction in BaF3/KZ134/hIL-21R cells.
Relative neutralization activity was determined based on the percentage decrease in phosphorylated-STAT3 levels relative to control cells incubated with ligand alone. Baf3/KZ134/hIL-21R cells are plated in 96-well round-bottom tissue culture plates at a density of 50,000 cells/well. Murine IL-21 was pre-incubated with the supernatant from each tested well before transfer to the plated cells. The reactions were stopped and cells lyzed according to the manufacturer's instructions, (BIO-RAD Laboratories). Supernatants were collected, mixed with assay buffer and stored. […] The level of phosphorylated-STAT3 was determined on an array reader (BIO-PLEX, BIO-RAD Laboratories) according to the manufacturer's instructions. […]

B1: Anti-IL-21: Mouse surrogate anti-IL-21 antibody, mIgG1/kappa isotype, VL SEQ ID NO:26 and VH SEQ ID NO:27, raised against recombinant mouse IL-21 (antibody, V domains shown)
VH: MNFGPSLIFLVLILKGVQCEVQLVESGGGLVKPGGSLKLSCAASGFTFNRYSMSWVRQSPEKRLEWVAEISVGGSYTQYVDIVTGRFTISRDNAKNTLYLEMSSLRSEDTAMYYCARLYYSGSGDSYYYAMDYWGQGTSVTVSS
VL: MDFQVQIFSFLLISASVILSRGQTVLIQSPAIMSASPGEKVTMTCSASSSVSYMHWYQQKSGTSPKRWIYDTSKLASGVPARFSGSGSGTSYSLTISSMEAEDAATYYCQQWNSNPPTFGGGTKLEMK
Effect on hyperglycemia (in words) ([1]; Example 1, NOD mice, 70 days): able to reverse hyperglycemia in some of the mice
Mice in which diabetes was reversed (BGV lowered to below 250 mg/dL) ([1]; Examples 1 and 2 compiled, FIG. 5A, 35 days period): half of the mice
Number of mice surviving / remaining viable throughout the study period of 70 days (in words) ([1]; Examples 1 and 2 compiled, FIGS. 3 and 4): substantial number
Average blood glucose +/− SD ([1]; Table 1, Example 1 mice (N = 10 per group at onset), day 0 post diabetes onset): 351 ± 56 mg/dL
Average blood glucose +/− SD ([1]; Table 1, Example 1 mice, day 4 post diabetes onset): 370 ± 73 mg/dL
Average blood glucose +/− SD ([1]; Table 1, Example 1 mice, day 7 post diabetes onset): 404 ± 93 mg/dL
Average blood glucose +/− SD ([1]; Table 1, Example 1 mice, day 11 post diabetes onset): 405 ± 160 mg/dL
Average blood glucose +/− SD ([1]; Table 1, Example 1 mice, day 14 post diabetes onset): 379 +/− 139 (n = 8) mg/dL
Average blood glucose +/− SD ([1]; Table 1, Example 1 mice, day 18 post diabetes onset): 351 +/− 178 (n = 7) mg/dL
Average blood glucose +/− SD ([1]; Table 1, Example 1 mice, day 21 post diabetes onset): 285 +/− 151 (n = 6) mg/dL
Average blood glucose +/− SD ([1]; Table 1, Example 1 mice, day 25 post diabetes onset): 279 +/− 169 (n = 6) mg/dL
Average blood glucose +/− SD ([1]; Table 1, Example 1 mice, day 28 post diabetes onset): 204 +/− 95 (n = 5) mg/dL
Average blood glucose +/− SD ([1]; Table 1, Example 1 mice, day 32 post diabetes onset): 221 +/− 101 (n = 5) mg/dL
Average blood glucose +/− SD ([1]; Table 1, Example 1 mice, day 35 post diabetes onset): 205 +/− 116 (n = 5) mg/dL
Average blood glucose +/− SD ([1]; Table 1, Example 1 mice, day 39 post diabetes onset (liraglutide withdrawn after day 35)): 224 +/− 140 (n = 5) mg/dL
Average blood glucose +/− SD ([1]; Table 1, Example 1 mice, day 42 post diabetes onset (liraglutide withdrawn after day 35)): 215 +/− 112 (n = 5) mg/dL
Average blood glucose +/− SD ([1]; Table 1, Example 1 mice, day 46 post diabetes onset (liraglutide withdrawn after day 35)): 201 +/− 122 (n = 5) mg/dL
Average blood glucose +/− SD ([1]; Table 1, Example 1 mice, day 49 post diabetes onset (liraglutide withdrawn after day 35)): 217 +/− 140 (n = 5) mg/dL
Average blood glucose +/− SD ([1]; Table 1, Example 1 mice, day 53 post diabetes onset (liraglutide withdrawn after day 35)): 229 +/− 186 (n = 5) mg/dL
Average blood glucose +/− SD ([1]; Table 1, Example 1 mice, day 56 post diabetes onset (liraglutide withdrawn after day 35)): 128 +/− 10 (n = 4) mg/dL
Average blood glucose +/− SD ([1]; Table 1, Example 1 mice, day 60 post diabetes onset (liraglutide withdrawn after day 35)): 174 +/− 59 (n = 4) mg/dL
Average blood glucose +/− SD ([1]; Table 1, Example 1 mice, day 63 post diabetes onset (liraglutide withdrawn after day 35)): 156 +/− 30 (n = 4) mg/dL
Average blood glucose +/− SD ([1]; Table 1, Example 1 mice, day 67 post diabetes onset (liraglutide withdrawn after day 35)): 138 +/− 16 (n = 4) mg/dL
Average blood glucose +/− SD ([1]; Table 1, Example 1 mice, day 70 post diabetes onset (liraglutide withdrawn after day 35)): 153 +/− 30 (n = 4) mg/dL
Average blood glucose +/− SD ([1]; Table 2, additional mice (Example 2), day 0 post diabetes onset): 353 +/− 59 (n = 8) mg/dL
Average blood glucose +/− SD ([1]; Table 2, additional mice (Example 2), day 4 post diabetes onset): 326 +/− 104 (n = 8) mg/dL
Average blood glucose +/− SD ([1]; Table 2, additional mice (Example 2), day 7 post diabetes onset): 375 +/− 103 (n = 8) mg/dL
Average blood glucose +/− SD ([1]; Table 2, additional mice (Example 2), day 11 post diabetes onset): 361 +/− 125 (n = 8) mg/dL
Average blood glucose +/− SD ([1]; Table 2, additional mice (Example 2), day 14 post diabetes onset): 338 +/− 153 (n = 8) mg/dL
Average blood glucose +/− SD ([1]; Table 2, additional mice (Example 2), day 18 post diabetes onset): 336 +/− 183 (n = 8) mg/dL
Average blood glucose +/− SD ([1]; Table 2, additional mice (Example 2), day 21 post diabetes onset): 248 +/− 153 (n = 6) mg/dL
Average blood glucose +/− SD ([1]; Table 2, additional mice (Example 2), day 28 post diabetes onset): 219 +/− 162 (n = 6) mg/dL
Average blood glucose +/− SD ([1]; Table 2, additional mice (Example 2), day 35 post diabetes onset): 147 +/− 15 (n = 5) mg/dL
Average blood glucose +/− SD ([1]; Table 2, additional mice (Example 2), day 42 post diabetes onset (liraglutide withdrawn after day 35)): 264 +/− 121 (n = 2^#) mg/dL
Average blood glucose +/− SD ([1]; Table 2, additional mice (Example 2), day 49 post diabetes onset (liraglutide withdrawn after day 35)): 118 +/− 17 (n = 2) mg/dL
Average blood glucose +/− SD ([1]; Table 2, additional mice (Example 2), day 56 post diabetes onset (liraglutide withdrawn after day 35)): 286 +/− 107 (n = 2) mg/dL
Average blood glucose +/− SD ([1]; Table 2, additional mice (Example 2), day 63 post diabetes onset (liraglutide withdrawn after day 35)): 314 +/− 157 (n = 2) mg/dL
Average blood glucose +/− SD ([1]; Table 2, additional mice (Example 2), day 70 post diabetes onset (liraglutide withdrawn after day 35)): 400 +/− 108 (n = 2) mg/dL
Average blood glucose +/− SD ([1]; Table 3, all mice (Examples 1 and 2 compiled), day 0 post diabetes onset): 352 +/− 57 (n = 18) mg/dL
Average blood glucose +/− SD ([1]; Table 3, all mice (Examples 1 and 2 compiled), day 4 post diabetes onset): 351 +/− 91 (n = 18) mg/dL
Average blood glucose +/− SD ([1]; Table 3, all mice (Examples 1 and 2 compiled), day 7 post diabetes onset): 391 +/− 99 (n = 18) mg/dL
Average blood glucose +/− SD ([1]; Table 3, all mice (Examples 1 and 2 compiled), day 11 post diabetes onset): 385 +/− 147 (n = 18) mg/dL
Average blood glucose +/− SD ([1]; Table 3, all mice (Examples 1 and 2 compiled), day 14 post diabetes onset): 358 +/− 148 (n = 16) mg/dL
Average blood glucose +/− SD ([1]; Table 3, all mice (Examples 1 and 2 compiled), day 18 post diabetes onset): 343 +/− 181 (n = 15) mg/dL
Average blood glucose +/− SD ([1]; Table 3, all mice (Examples 1 and 2 compiled), day 21 post diabetes onset): 267 +/− 153 (n = 12) mg/dL
Average blood glucose +/− SD ([1]; Table 3, all mice (Examples 1 and 2 compiled), day 28 post diabetes onset): 212 +/− 136 (n = 11) mg/dL
Average blood glucose +/− SD ([1]; Table 3, all mice (Examples 1 and 2 compiled), day 35 post diabetes onset): 176 +/− 88 (n = 10) mg/dL
Average blood glucose +/− SD ([1]; Table 3, all mice (Examples 1 and 2 compiled), day 42 post diabetes onset (liraglutide withdrawn after day 35)): 229 +/− 117 (n = 7^#) mg/dL
Average blood glucose +/− SD ([1]; Table 3, all mice (Examples 1 and 2 compiled), day 49 post diabetes onset (liraglutide withdrawn after day 35)): 189 +/− 127 (n = 7) mg/dL
Average blood glucose +/− SD ([1]; Table 3, all mice (Examples 1 and 2 compiled), day 56 post diabetes onset (liraglutide withdrawn after day 35)): 181 +/− 97 (n = 6) mg/dL
Average blood glucose +/− SD ([1]; Table 3, all mice (Examples 1 and 2 compiled), day 63 post diabetes onset (liraglutide withdrawn after day 35)): 209 +/− 119 (n = 6) mg/dL
Average blood glucose +/− SD ([1]; Table 3, all mice (Examples 1 and 2 compiled), day 70 post diabetes onset (liraglutide withdrawn after day 35)): 236 +/− 134 (n = 6) mg/dL
Survival through 70 days post onset of hyperglycaemia ([2]; Example 4): 75%
Mice with established hyperglycaemia cured / reversed ([2]; Example 4, first 35 days post disease onset): 75%
Cellular infiltration of pancreas (in words) ([3]; subset of mice from each group): decreased extent of infiltration
Insulitis (in words) ([3]; surviving mice): reduced
Neutralizing activity in STAT3 phosphorylation assay (in words) [4]: strong neutralizing activity
